Experimental data from US20050123477A1, “Benzothiazole derivatives for in vivo imaging of amloid plaques” (priority 2002, published 2005).
Where no end group is shown, it is not given here.

Experiments:
[1] = molecular target: T1, fibrillar Beta-Amyloid Protein (BAP 1-40) (Homo sapiens, UniProt P05067); assay: Amyloid binding on SPA beads; conditions: 180 minutes at room temperature, equimolar amounts, non-specific binding subtracted
T1 construct: 25 μl BAP 1-40 (10 mg/ml, Biosource 03-138); purchased Biosource 03-138 (BAP 1-40); 03-243 (biotinylated BAP 1-40)
Method: The binding of Compound 1 (74 TBq/mmol) was determined compared to the ability of ^125I-beta amyloid protein 1-40 (^125I-BAP 1-40, Amersham Biosciences IM294)) to bind to amyloid 140 fibrils. Amyloid binding was essentially performed as follows.
Three fresh buffer stocks were prepared for experiments: Buffer 1, 50 mM HEPES/0.1 % Bovine Serum Albumin (BSA) pH 7.5; Buffer 2, 50 mM HEPES/0.1% BSA/400 μM ZnCl2 pH 7.5; Buffer 3, 50 mM HEPES/0.1% BSA/100 μM ZnCl2 pH 7.5.
Streptavidin coated scintillation proximity assay beads (SA-SPA beads, Amersham Biosciences) were used to immobilise fibrillar Beta-Amyloid Protein (BAP 1-40). Amyloid coated beads (SPA-BAP) were prepared by incubating 250 μl SA-SPA beads (100 mg/ml) with 250 μl Buffer 2, 425 μl Buffer 1, 50 μl biotinylated BAP 1-40 (0.5 mg/ml, Biosource 03-243), 25 μl BAP 1-40 (10 mg/ml, Biosource 03-138). Non-specific binding SPA beads (SPA-NSB) were prepared to assess the binding of compounds to SPA beads with no associated BAP 1-40 fibrils in the following incubation: 250 μl SA-SPA beads (100 mg/ml) with 250 μL Buffer 2,500 μl Buffer 1.
SPA-BAP and SPA-NSB incubations were left for 24 hours at room temperature and then spun 1.5 ml tubes (eppendorf, Merk, 306/0421/12) for 2 minutes at 1000×g. The supernatants were removed and the beads were washed twice by resuspending them in 1 ml Buffer 3 followed by centrifugation for 2 minutes at 1000×g. Finally, washed SPA-BAP and SPA-NSB beads were resuspended in 1 ml Buffer 3.
Amyloid binding of ^125I-BAP 1-40 and Compound 1 was performed in triplicate in 0.5 ml tubes (eppendorf, Merk, 306/0421/02) by adding 50 μl SPA-BAP beads to 25 μl Buffer 2 and 25 μl labelled compound (^125I-BAP 1-40 or Compound 1). Tubes were then incubated for 180 minutes at room temperature with shaking, followed by centrifugation for 2 minutes at 1000×g. The supernatants were removed and SPA-BAP pellet washed twice with 300 μl Buffer 3 containing 1% TWEEN-20 (Sigma, P7949). Non-specific binding for labelled compounds to the SPA beads was determined using incubations as described above but by substituting SPA-BAP beads with SPA-NSB beads. Radioactivity associated with the washed SPA bead pellets was then determined.
The affinity of labelled compounds for fibrillar BAP 1-40 was estimated by subtracting SPA-NSB associated counts from SPA-BAP associated counts. The binding of labelled compounds was then compared to ^125I-BAP binding, which was taken as being 100%.
In these experiments, ^125-BAP 1-40 or Compound 1 were added in equimolar amounts (between 1-5×10^−11 mmoles per incubation).

[2] = Brain Uptake Index (BUI) method; type: in vivo; conditions: carotid artery bolus, decapitated after 15 seconds, relative to 14C-Butanol
Method: BUI is calculated according to the following equation: [formula] BUI was performed on three animals from the same test solution for each experiment. Each compound was assayed in duplicate.

T1 sequence (P05067 672-711 limits assumed): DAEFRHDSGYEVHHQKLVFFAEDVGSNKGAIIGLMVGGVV

Substance | Amyloid binding (% of 125I-BAP 1-40) [1] [%] | Mean BUI [2]
^125I-KKLVFFA (BAP 15-21): ^125I-labelled BAP 15-21 sequence (Amersham Biosciences) (not fully specified (N-terminus); also: 125I label, site not given here) | 21 | 
^125I-BAP 1-40: ^125I-beta amyloid protein 1-40, Amersham Biosciences IM294; reference taken as 100% binding | 100 | 
^99mTc-Pn216-KKLVFF (BAP 15-20): ^99mTc-labelled BAP sequence responsible for the binding of BAP to itself | 9 | 
^14C-FDG [reference compound] |  | 17.98
